B1: NEK8 (parent)
chain: VVGTPCYISPELCEGKPYNQKSDI
B2: NCF4 (parent)
chain: FGPDSKSSALACTLPTLPAKVYVG

Variants of: B1
Assay: protein stability index of a GFP-peptide fusion (GPS, HEK-293T) (PSI 1-6); higher = more stable
Settings: c terminus: a fixed tail appended
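Further: lentivirally expressed fusions sorted by FACS into six bins by GFP to DsRed ratio, PSI derived from sequencing read proportions per bin multiplied by bin number.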

Variant | protein stability index
VVGTPCYISPELCEGKPNNQKSDI | 3.63
VVGTPCYISPELCEGKPPNQKSDI | 3.4
VVGTPCYISPELCEGKPQNQKSDI | 3.5
VVGTPCYISPELCEGKPRNQKSDI | 3.58
VVGTPCYISPELCEGKPSNQKSDI | 3.86
VVGTPCYISPELCEGKPTNQKSDI | 3.68
VVGTPCYISPELCEGKPVNQKSDI | 3.67
VVGTPCYISPELCEGKPWNQKSDI | 2.6
VVGTPCYISPELCEGKPYAQKSDI | 2.79
VVGTPCYISPELCEGKPYCQKSDI | 2.46
VVGTPCYISPELCEGKPYDQKSDI | 3.22
VVGTPCYISPELCEGKPYEQKSDI | 2.94
VVGTPCYISPELCEGKPYFQKSDI | 2.14
VVGTPCYISPELCEGKPYGQKSDI | 2.48
VVGTPCYISPELCEGKPYHQKSDI | 2.48
VVGTPCYISPELCEGKPYIQKSDI | 2.38
VVGTPCYISPELCEGKPYKQKSDI | 2.98
VVGTPCYISPELCEGKPYLQKSDI | 2.21
VVGTPCYISPELCEGKPYMQKSDI | 2.88
VVGTPCYISPELCEGKPYPQKSDI | 2.82
VVGTPCYISPELCEGKPYQQKSDI | 3.19
VVGTPCYISPELCEGKPYRQKSDI | 2.45
VVGTPCYISPELCEGKPYSQKSDI | 3.1
VVGTPCYISPELCEGKPYTQKSDI | 2.98
VVGTPCYISPELCEGKPYVQKSDI | 2.73

Variant | protein stability index
VVGTPCYISPELCEGKPYWQKSDI | 2.02
VVGTPCYISPELCEGKPYYQKSDI | 2.39
VVGTPCYISPELCEGKPYNAKSDI | 2.44
VVGTPCYISPELCEGKPYNCKSDI | 2.57
VVGTPCYISPELCEGKPYNDKSDI | 2.54
VVGTPCYISPELCEGKPYNEKSDI | 2.63
VVGTPCYISPELCEGKPYNFKSDI | 1.85
VVGTPCYISPELCEGKPYNGKSDI | 2.71
VVGTPCYISPELCEGKPYNHKSDI | 2.59
VVGTPCYISPELCEGKPYNIKSDI | 2.24
VVGTPCYISPELCEGKPYNKKSDI | 3.15
VVGTPCYISPELCEGKPYNLKSDI | 2.55
VVGTPCYISPELCEGKPYNMKSDI | 2.22
VVGTPCYISPELCEGKPYNNKSDI | 3.3
VVGTPCYISPELCEGKPYNPKSDI | 2.31
VVGTPCYISPELCEGKPYNRKSDI | 2.84
VVGTPCYISPELCEGKPYNSKSDI | 2.49
VVGTPCYISPELCEGKPYNTKSDI | 2.48
VVGTPCYISPELCEGKPYNVKSDI | 2.79
VVGTPCYISPELCEGKPYNWKSDI | 1.89
VVGTPCYISPELCEGKPYNYKSDI | 2.14
VVGTPCYISPELCEGKPYNQASDI | 2.99
VVGTPCYISPELCEGKPYNQCSDI | 2.51
VVGTPCYISPELCEGKPYNQDSDI | 2.93
VVGTPCYISPELCEGKPYNQESDI | 2.48

Variant | protein stability index
VVGTPCYISPELCEGKPYNQFSDI | 1.75
VVGTPCYISPELCEGKPYNQGSDI | 2.79
VVGTPCYISPELCEGKPYNQHSDI | 2.86
VVGTPCYISPELCEGKPYNQISDI | 1.97
VVGTPCYISPELCEGKPYNQLSDI | 2.41
VVGTPCYISPELCEGKPYNQMSDI | 2.07
VVGTPCYISPELCEGKPYNQNSDI | 2.85
VVGTPCYISPELCEGKPYNQPSDI | 2.45
VVGTPCYISPELCEGKPYNQQSDI | 2.92
VVGTPCYISPELCEGKPYNQRSDI | 2.26
VVGTPCYISPELCEGKPYNQSSDI | 3.01
VVGTPCYISPELCEGKPYNQTSDI | 2.48
VVGTPCYISPELCEGKPYNQVSDI | 1.99
VVGTPCYISPELCEGKPYNQWSDI | 2.65
VVGTPCYISPELCEGKPYNQYSDI | 2.2
VVGTPCYISPELCEGKPYNQKADI | 2.48
VVGTPCYISPELCEGKPYNQKCDI | 2.52
VVGTPCYISPELCEGKPYNQKDDI | 3.05
VVGTPCYISPELCEGKPYNQKEDI | 3.31
VVGTPCYISPELCEGKPYNQKFDI | 2.5
VVGTPCYISPELCEGKPYNQKGDI | 2.67
VVGTPCYISPELCEGKPYNQKHDI | 2.77
VVGTPCYISPELCEGKPYNQKIDI | 2.5
VVGTPCYISPELCEGKPYNQKKDI | 3.12
VVGTPCYISPELCEGKPYNQKLDI | 2.63

Variant | protein stability index
VVGTPCYISPELCEGKPYNQKMDI | 2.51
VVGTPCYISPELCEGKPYNQKNDI | 2.58
VVGTPCYISPELCEGKPYNQKPDI | 3.08
VVGTPCYISPELCEGKPYNQKQDI | 2.85
VVGTPCYISPELCEGKPYNQKRDI | 3.01
VVGTPCYISPELCEGKPYNQKTDI | 2.95
VVGTPCYISPELCEGKPYNQKVDI | 2.36
VVGTPCYISPELCEGKPYNQKWDI | 1.26
VVGTPCYISPELCEGKPYNQKYDI | 2.37
VVGTPCYISPELCEGKPYNQKSAI | 2.74
VVGTPCYISPELCEGKPYNQKSCI | 2.93
VVGTPCYISPELCEGKPYNQKSEI | 2.47
VVGTPCYISPELCEGKPYNQKSFI | 2.04
VVGTPCYISPELCEGKPYNQKSGI | 1.82
VVGTPCYISPELCEGKPYNQKSHI | 2.94
VVGTPCYISPELCEGKPYNQKSII | 2.19
VVGTPCYISPELCEGKPYNQKSKI | 3.02
VVGTPCYISPELCEGKPYNQKSLI | 2.15
VVGTPCYISPELCEGKPYNQKSMI | 2.18
VVGTPCYISPELCEGKPYNQKSNI | 2.56
VVGTPCYISPELCEGKPYNQKSPI | 2.35
VVGTPCYISPELCEGKPYNQKSQI | 2.36
VVGTPCYISPELCEGKPYNQKSRI | 2.29
VVGTPCYISPELCEGKPYNQKSSI | 2.17
VVGTPCYISPELCEGKPYNQKSTI | 2.63

Variant | protein stability index
VVGTPCYISPELCEGKPYNQKSVI | 2.02
VVGTPCYISPELCEGKPYNQKSWI | 1.25
VVGTPCYISPELCEGKPYNQKSYI | 2.44
VVGTPCYISPELCEGKPYNQKSDA | 3.45
VVGTPCYISPELCEGKPYNQKSDC | 2.91
VVGTPCYISPELCEGKPYNQKSDD | 4.21
VVGTPCYISPELCEGKPYNQKSDE | 2.94
VVGTPCYISPELCEGKPYNQKSDF | 2.51
VVGTPCYISPELCEGKPYNQKSDG | 3.4
VVGTPCYISPELCEGKPYNQKSDH | 3.18
VVGTPCYISPELCEGKPYNQKSDK | 3.63
VVGTPCYISPELCEGKPYNQKSDL | 2.79
VVGTPCYISPELCEGKPYNQKSDM | 2.95
VVGTPCYISPELCEGKPYNQKSDN | 3.35
VVGTPCYISPELCEGKPYNQKSDP | 3.18
VVGTPCYISPELCEGKPYNQKSDQ | 3.33
VVGTPCYISPELCEGKPYNQKSDR | 3.51
VVGTPCYISPELCEGKPYNQKSDS | 3.56
VVGTPCYISPELCEGKPYNQKSDT | 3.97
VVGTPCYISPELCEGKPYNQKSDV | 3.27
VVGTPCYISPELCEGKPYNQKSDW | 2.63
VVGTPCYISPELCEGKPYNQKSDY | 3.08

Variants of: B2
Assay: as above
Settings: c terminus: a fixed tail appended

Variant | protein stability index
AGPDSKSSALACTLPTLPAKVYVG | 3.11
CGPDSKSSALACTLPTLPAKVYVG | 2.67
DGPDSKSSALACTLPTLPAKVYVG | 3.56
EGPDSKSSALACTLPTLPAKVYVG | 4.28
GGPDSKSSALACTLPTLPAKVYVG | 3.58
HGPDSKSSALACTLPTLPAKVYVG | 3.84
IGPDSKSSALACTLPTLPAKVYVG | 2.64
KGPDSKSSALACTLPTLPAKVYVG | 3.17
LGPDSKSSALACTLPTLPAKVYVG | 2.99
MGPDSKSSALACTLPTLPAKVYVG | 2.68
NGPDSKSSALACTLPTLPAKVYVG | 3.69
PGPDSKSSALACTLPTLPAKVYVG | 3.32
QGPDSKSSALACTLPTLPAKVYVG | 3.02
RGPDSKSSALACTLPTLPAKVYVG | 2.54
SGPDSKSSALACTLPTLPAKVYVG | 3.64
TGPDSKSSALACTLPTLPAKVYVG | 3.47
VGPDSKSSALACTLPTLPAKVYVG | 2.92
WGPDSKSSALACTLPTLPAKVYVG | 2.63
YGPDSKSSALACTLPTLPAKVYVG | 2.7
FAPDSKSSALACTLPTLPAKVYVG | 2.57
FCPDSKSSALACTLPTLPAKVYVG | 1.12
FDPDSKSSALACTLPTLPAKVYVG | 3.1

Variant | protein stability index
FEPDSKSSALACTLPTLPAKVYVG | 3.43
FFPDSKSSALACTLPTLPAKVYVG | 3.06
FHPDSKSSALACTLPTLPAKVYVG | 1.61
FIPDSKSSALACTLPTLPAKVYVG | 1.96
FKPDSKSSALACTLPTLPAKVYVG | 3.02
FLPDSKSSALACTLPTLPAKVYVG | 2.06
FMPDSKSSALACTLPTLPAKVYVG | 1.84
FNPDSKSSALACTLPTLPAKVYVG | 1.77
FPPDSKSSALACTLPTLPAKVYVG | 2.59
FQPDSKSSALACTLPTLPAKVYVG | 1.49
FRPDSKSSALACTLPTLPAKVYVG | 2.6
FSPDSKSSALACTLPTLPAKVYVG | 2.34
FTPDSKSSALACTLPTLPAKVYVG | 2.06
FVPDSKSSALACTLPTLPAKVYVG | 3.38
FWPDSKSSALACTLPTLPAKVYVG | 1.65
FYPDSKSSALACTLPTLPAKVYVG | 2.22
FGADSKSSALACTLPTLPAKVYVG | 2.45
FGCDSKSSALACTLPTLPAKVYVG | 2.04
FGDDSKSSALACTLPTLPAKVYVG | 2.19
FGEDSKSSALACTLPTLPAKVYVG | 3.02
FGFDSKSSALACTLPTLPAKVYVG | 1.72
FGGDSKSSALACTLPTLPAKVYVG | 2.07

Variant | protein stability index
FGHDSKSSALACTLPTLPAKVYVG | 2.46
FGIDSKSSALACTLPTLPAKVYVG | 2.13
FGKDSKSSALACTLPTLPAKVYVG | 2.56
FGLDSKSSALACTLPTLPAKVYVG | 2.17
FGMDSKSSALACTLPTLPAKVYVG | 2.01
FGNDSKSSALACTLPTLPAKVYVG | 2.21
FGQDSKSSALACTLPTLPAKVYVG | 3.09
FGRDSKSSALACTLPTLPAKVYVG | 2.35
FGSDSKSSALACTLPTLPAKVYVG | 2.35
FGTDSKSSALACTLPTLPAKVYVG | 2.25
FGVDSKSSALACTLPTLPAKVYVG | 1.86
FGWDSKSSALACTLPTLPAKVYVG | 1.46
FGYDSKSSALACTLPTLPAKVYVG | 1.73
FGPASKSSALACTLPTLPAKVYVG | 1.82
FGPCSKSSALACTLPTLPAKVYVG | 2.11
FGPESKSSALACTLPTLPAKVYVG | 2.05
FGPFSKSSALACTLPTLPAKVYVG | 1.58
FGPGSKSSALACTLPTLPAKVYVG | 2.1
FGPHSKSSALACTLPTLPAKVYVG | 1.18
FGPISKSSALACTLPTLPAKVYVG | 2.15
FGPKSKSSALACTLPTLPAKVYVG | 2.48
FGPLSKSSALACTLPTLPAKVYVG | 2.15

From the supplement of paper PMC10567573
